Data as given in US20180022822A1, “NOVEL ANTI-FIBROBLAST ACTIVATION PROTEIN (FAP) BINDING AGENTS AND USES THEREOF” (Mabimmune Diagnostics AG, priority 2016, published 2018).

Tests used:
MC38 colorectal tumors = test: orthotopic syngeneic MC38 colorectal cancer model, MRI; format: in vivo, mouse; conditions: 20 mg/kg i.p. every 72 hours, 5 cycles, versus PBS
Description: […] mice were anesthetized by isofluorane inhalation, and the hepatic portal vein was accessed by median laparotomy (from xiphoid 4 cm caudally). Mice were injected with 1 million murine MC38 colorectal cancer cells. The origin of these cell is described in Science 19 Sep. 1986. MC-38 tumors were allowed to form for 7 days before treatment. Mice were treated with either PBS or NI-206.82C2 (20 mg/kg by intraperitoneal injection) every 72 hours for 5 treatment cycles, before being anesthetized by isofluourane inhalation. Small animal MRI imaging was performed using a Bruker 4.7 Tesla MRI to aquire images of liver metastases. Tumor images were analyzed on Myrian Software (Intrasense) to quantify tumor metastases and cumulative tumor diameter overall tumor burden.

[1] = target: T1, active recombinant human FAP (Homo sapiens, UniProt Q12884); test: DQ-gelatin cleavage inhibition, active recombinant human FAP; format: biochemical
T1 construct: purchased Sino Biologicals 10464-H07H
T1 sequence (Q12884 26-760 limits assumed): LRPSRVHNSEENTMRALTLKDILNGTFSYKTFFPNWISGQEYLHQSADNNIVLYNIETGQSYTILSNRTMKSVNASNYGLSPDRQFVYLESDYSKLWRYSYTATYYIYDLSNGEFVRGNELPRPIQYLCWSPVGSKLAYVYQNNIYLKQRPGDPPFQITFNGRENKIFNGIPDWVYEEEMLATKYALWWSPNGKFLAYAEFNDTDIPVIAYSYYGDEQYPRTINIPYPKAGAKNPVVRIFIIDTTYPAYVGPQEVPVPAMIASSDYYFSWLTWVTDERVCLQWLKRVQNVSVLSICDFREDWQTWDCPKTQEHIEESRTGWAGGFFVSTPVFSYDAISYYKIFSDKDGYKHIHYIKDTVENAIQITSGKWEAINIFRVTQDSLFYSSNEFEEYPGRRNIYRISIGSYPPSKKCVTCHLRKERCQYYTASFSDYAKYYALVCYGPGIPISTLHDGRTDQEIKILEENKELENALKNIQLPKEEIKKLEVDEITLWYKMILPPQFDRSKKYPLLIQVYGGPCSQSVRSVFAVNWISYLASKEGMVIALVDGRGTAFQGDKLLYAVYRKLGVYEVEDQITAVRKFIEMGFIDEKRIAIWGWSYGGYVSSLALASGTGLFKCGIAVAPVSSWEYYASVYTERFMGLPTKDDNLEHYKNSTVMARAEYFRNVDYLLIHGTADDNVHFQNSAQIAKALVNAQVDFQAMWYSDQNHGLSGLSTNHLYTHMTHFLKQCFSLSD
Description: A black flat bottom standard 96-well ELISA plate was blocked for 1 hour at 37° C. using sterile blocking buffer: 5% bovine serum albumin (BSA) in phosphate buffered saline (PBS). The blocking buffer was removed and replaced with: 40 μL of fresh blocking buffer, 40 μL of antibody in PBS, 10 μL of 20 nM active recombinant human FAP (Sino Biologicals, 10464-H07H) in PBS, and 10 μL of DQ-Gelatin (Molecular Probes, D-12054) in PBS. Fluorescence intensity was measured at 485 nm excitation and 530 nm emission every 3 min over a total time of 45 min, while gently shaking the plate for twenty seconds before every measurement. To calculate the fractional activity, the steady state velocity (Δ 530 nm emission/Δ time) […].
To determine the inhibitory ability of NI-206.82C2 against active recombinant human FAP (Sino Biologicals, 10464-H07H) a black 96 well ELISA plate was blocked for 1 h at 37° C. with sterile 5% BSA in PBS. After removing the blocking solution, 40 uL of 12.5% BSA in PBS was added to each well. Then FAP-targeting agents (NI-206.82C2, F19, and Val-Boro-Pro (PT-100; Point therapeutics)) were added to the appropriate wells for a final concentration of 500, 10, 3.03, 1.01, 0.031, 0.001, and 0 nM. 10 uL of active recombinant human FAP was then added to all the wells for a final assay concentration of 20 nM. […]

potency for inhibiting active recombinant human FAP compared to Val-boro-Pro and F19 [1]: higher potency
B1: NI-206.82C2: human-derived recombinant anti-FAP antibody; VH SEQ ID NO: 2 or 4 (PIMC), VL SEQ ID NO: 6 (antibody, V domains shown)
VH: QVQLQQSGPGLVKPSQTLSLTCAISGDSVSSNSVTWNWIRQSPSRGLEWLGRTYYRSKWYNDYAVSVKGRITINPDTSKNQFYLQLKSVTPEDAAVYYCARDSSILYGDYWGQGTLVTVSS
VL: QAVLTQPSSLSASPGASASLTCTLPSGINVGTYRIFWFQQKPGSPPQYLLSYKSDSDNHQGSGVPSRFSGSKDASANAGILLISGLQSEDEADYYCMIWHSSAWVFGGGTKLTVL
cumulative tumor diameter (MC38 colorectal tumors): reduced
number of metastases (MC38 colorectal tumors): reduced
